Assay [1] has as its target T1, human PD-L1 over-expressed on CHOK1 cells (human, UniProt Q9NZQ7 19-290).
T1 construct: whole, on cells; also called PDL1-CHOK1 cells
In words: flow cytometry (MFI) on PDL1-CHOK1 cells; lower right panel. How it is done:
(§1) To evaluate the antigen binding property, the humanized antibodies were analyzed for their binding to PD-L1 overexpressed on mammalian cells by FACS. Briefly, PDL1-CHOK1 cells were firstly incubated with 3-fold serious diluted humanized antibodies starting at 15 μg/ml at 4° C. for 40 mins. After washed by PBS, the Alexa Fluor® 647 AffiniPure Goat Anti-Human IgG (H+L) antibody was added to each well and incubated at 4° C. for 30 mins. The MFI of Alexa Fluor® 647 was evaluated by FACSCanto.

Assay [2] has as its target T2, human PD-L1-his tag protein (human, UniProt Q9NZQ7 19-238).
T2 construct: also called human PD-L1-His protein; recombinant PD-L1 protein; not shown: his tag
In words: SPR (Biacore), affinity ranking, PDL1-His.

The target of assay [3] is T3, human PD-L1-Fc protein (human, UniProt Q9NZQ7 19-238).
T3 construct: coating antigen of the ELISAs; also called rhPD-L1-Fc; not shown: Fc
Description: receptor blocking ELISA: coated human PD-L1-Fc, blocked ligand biotin-labeled human PD-1-Fc (Bio-PD1), OD 450nm; lower right panel. How it is done: (§2) Briefly, microtiter plates were coated with human PD-L1-Fc protein at 0.5 μg/ml in PBS, 100 μl/well at 4° C. overnight, then blocked with 150 μl/well of 1% BSA at 37° C. for 2 hours. […] The plates were washed with PBS/Tween and then incubated with Streptavidin-HRP for 10 mins at 37° C. After washing, the plates were developed with TMB substrate and analyzed by spectrophotometer at OD 450 nm.

Assay [4] has as its target T2, human PD-L1-his tag protein. In words: SPR (Biacore T200), mAb captured on Protein A chip, PD-L1-his injected. How it is done:
The binding of the humanized antibodies to recombinant PD-L1 protein (human PD-L1-his tag) was tested by Biacore using a capture method. […] A serial dilution of human PD-L1-his tag protein was injected over captured antibody for 2 mins at a flow rate of 30 μl/min. The antigen was allowed to dissociate for 1500 s. All the experiment were carried out on a Biacore T200.

Assay [5] addresses T3, human PD-L1-Fc protein. In words: ELISA, antibody titrated on coated human PD-L1-Fc, OD 450nm; upper right panel.
For assay [6], the target named is T3, human PD-L1-Fc protein. In words: receptor blocking ELISA: coated human PD-L1-Fc, blocked ligand biotin-labeled human CD80-Fc (Bio-CD80), OD 450nm; lower right panel. How it is done:
as §2

The target in assay [7] is T2, human PD-L1-his tag protein. In words: SPR (Biacore T200), mAb captured on Protein A chip, PD-L1-his injected. How it is done: A serial dilution of human PD-L1-his tag protein was injected over captured antibody for 2 mins at a flow rate of 30 μl/min. The antigen was allowed to dissociate for 480-1500 s. All the experiment were carried out on a Biacore T200. Data analysis was carried out using Biacore T200 evaluation software.
The source holds these as a separate data set.

Another assay addresses mouse PD-L1 protein (mouse, UniProt Q9EP73 19-239). Description: ELISA, coated mouse PD-L1. How it is done: (§3) ELISA testing was carried out to evaluate the binding of chimeric antibodies to human, mouse, rat, and cynomolgus PD-L1, respectively.
(§4) Briefly, microtiter plates were coated with human, mouse, rat and cynomolgus PD-L1 proteins at 0.5 μg/ml in PBS, 100 μl/well at 4° C. overnight, then blocked with 150 μl/well of 1% BSA. Three-fold dilutions of chimeric antibodies starting from 10 μg/ml were added to each well and incubated for 1 hour at 37° C. The plates were washed with PBS/Tween and then incubate with mouse-anti-human IgG Fab antibody conjugated with Horse Radish Peroxidase (HRP) for 30 mins at 37° C. After washing, the plates were developed with TMB substrate and analyzed by spectrophotometer at OD 450 nm.

The target of assay [8] is T3, human PD-L1-Fc protein. In words: receptor blocking ELISA: coated human PD-L1-Fc, blocked ligand biotin-labeled human CD80-Fc (Bio-CD80), OD 450nm; upper right panel (with Hu89C10H8-7). How it is done:
as §2

In a further assay the target is cynomolgus PD-L1 protein (cynomolgus, UniProt G7PSE7 19-238). In words: ELISA, coated cynomolgus PD-L1. How it is done: as §3, §4
Assay [9] deals with T3, human PD-L1-Fc protein. In words: receptor blocking ELISA: coated human PD-L1-Fc, blocked ligand biotin-labeled human PD-1-Fc (Bio-PD1), OD 450nm; lower left panel (with Hu89C10H8-11). How it is done:
as §2

Assay [10] has as its target T1, human PD-L1 over-expressed on CHOK1 …. In words: flow cytometry on PDL1-CHOK1 cells. How it is done:
After washing by PBS, Alexa Fluor® 647 AffiniPure Goat Anti-Human IgG (H+L) was added to each well and incubated at 4° C. for 30 mins. Samples were washed twice with FACS buffer. The mean florescence intensity (MFI) of Alexa Fluor® 647 was evaluated by FACSCanto.

Assay [11] addresses T3, human PD-L1-Fc protein. Description: receptor blocking ELISA: coated human PD-L1-Fc, blocked ligand biotin-labeled human PD-1-Fc (Bio-PD1), OD 450nm; upper right panel (with Hu89C10H8-7). As to the method:
as §2

Assay [12] has as its target T3, human PD-L1-Fc protein. Description: competition ELISA, coated human PD-L1-Fc, biotin-labeled human PD-1-Fc as competitor. As to the method: Briefly, microtiter plates were coated with human PD-L1-Fc protein at 0.5 μg/ml in PBS, 100 μl/well at 4° C. overnight, then blocked with 150 μl/well of 1% BSA. […] The plates were washed with PBS/Tween and then incubated with Streptavidin-HRP for 10 mins at 37° C. After washing, the plates were developed with TMB substrate and analyzed by spectrophotometer at OD 450 nm.

Assay [13] addresses T3, human PD-L1-Fc protein. In words: ELISA, antibody titrated on coated human PD-L1-Fc, OD 450nm; upper right panel (with Hu89C10H8-7 to -12). As to the method:
as §4, with “To evaluate antigen binding activity, the humanized antibodies were subjected to ELISA test. Briefly,” for “Briefly,”, “with human PD-L1-Fc protein” for “with human, mouse, rat and cynomolgus PD-L1 proteins”, “with 200” for “with 150”, “of humanized” for “of chimeric”, “then incubated” for “then incubate”, “for 1 hour” for “for 30 mins”

Assay [14] deals with T3, human PD-L1-Fc protein. In words: ELISA, antibody titrated on coated human PD-L1-Fc, OD 450nm; upper left panel (with Hu89C10H8-1 to -6). How it is done: as §4, with “To evaluate antigen binding activity, the humanized antibodies were subjected to ELISA test. Briefly,” for “Briefly,”, “with human PD-L1-Fc protein” for “with human, mouse, rat and cynomolgus PD-L1 proteins”, “with 200” for “with 150”, “of humanized” for “of chimeric”, “then incubated” for “then incubate”, “for 1 hour” for “for 30 mins”

Assay [15] has as its target T3, human PD-L1-Fc protein. Description: ELISA, coated human PD-L1 (PD-L1-Fc per paragraph 110). As to the method:
Briefly, microtiter plates were coated with human PD-L1-Fc protein at 0.5 μg/ml in PBS, 100 μl/well at 4° C. overnight, then blocked with 150 μl/well of 1% BSA. […] The plates were washed with PBS/Tween and then incubated with Mouse-anti-human IgG Fab antibody conjugated with Horse Radish Peroxidase (HRP) for 30 mins at 37° C. After washing, the plates were developed with TMB substrate and analyzed by spectrophotometer at OD 450 nm.
as §4

For assay [16], the target named is T3, human PD-L1-Fc protein. Description: ELISA, antibody titrated on coated human PD-L1-Fc, OD 450nm; lower left panel (with Hu89C10H8-13 to -16). How it is done: as §4, with “To evaluate antigen binding activity, the humanized antibodies were subjected to ELISA test. Briefly,” for “Briefly,”, “with human PD-L1-Fc protein” for “with human, mouse, rat and cynomolgus PD-L1 proteins”, “with 200” for “with 150”, “of humanized” for “of chimeric”, “then incubated” for “then incubate”, “for 1 hour” for “for 30 mins”

Assay [17] deals with T3, human PD-L1-Fc protein. Description: receptor blocking ELISA: coated human PD-L1-Fc, blocked ligand biotin-labeled human CD80-Fc (Bio-CD80), OD 450nm; lower right panel (with Hu89C10H8-12). How it is done:
as §2

Assay [18] addresses T3, human PD-L1-Fc protein. Description: receptor blocking ELISA: coated human PD-L1-Fc, blocked ligand biotin-labeled human CD80-Fc (Bio-CD80), OD 450nm; upper left panel (with Hu89C10H8-4). As to the method: as §2
The target of assay [19] is T1, human PD-L1 over-expressed on CHOK1 …. In words: flow cytometry (MFI) on PDL1-CHOK1 cells; lower right panel (with the Hu89C10H8 antibodies). As to the method: as §1
For another assay, the target named is rat PD-L1 protein (rat, UniProt D4AE25 19-239). Description: ELISA, coated rat PD-L1. How it is done:
as §3, §4

Assay [20] deals with T3, human PD-L1-Fc protein. Description: receptor blocking ELISA: coated human PD-L1-Fc, blocked ligand biotin-labeled human CD80-Fc (Bio-CD80), OD 450nm; lower left panel (with Hu89C10H8-11). How it is done:
as §2

Assay [21] deals with T3, human PD-L1-Fc protein. Description: receptor blocking ELISA: coated human PD-L1-Fc, blocked ligand biotin-labeled human PD-1-Fc (Bio-PD1), OD 450nm; upper left panel (with Hu89C10H8-4). As to the method:
as §2

T2 sequence (Q9NZQ7 19-238 limits assumed): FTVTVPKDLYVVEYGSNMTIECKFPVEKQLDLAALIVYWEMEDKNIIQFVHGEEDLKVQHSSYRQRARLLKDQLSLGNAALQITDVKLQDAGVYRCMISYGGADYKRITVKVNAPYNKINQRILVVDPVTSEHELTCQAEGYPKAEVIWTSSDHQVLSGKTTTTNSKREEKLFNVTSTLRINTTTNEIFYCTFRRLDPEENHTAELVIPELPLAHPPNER
T3 sequence (Q9NZQ7 19-238 limits assumed): as above
T1 sequence (Q9NZQ7 19-290): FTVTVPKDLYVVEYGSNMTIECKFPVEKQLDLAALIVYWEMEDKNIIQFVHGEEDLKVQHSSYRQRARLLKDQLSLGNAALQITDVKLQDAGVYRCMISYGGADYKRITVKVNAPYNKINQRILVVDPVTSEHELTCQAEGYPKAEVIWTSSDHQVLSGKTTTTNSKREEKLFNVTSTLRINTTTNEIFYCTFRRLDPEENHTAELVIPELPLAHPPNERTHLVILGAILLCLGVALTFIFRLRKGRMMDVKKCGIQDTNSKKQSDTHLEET
Chain of rat PD-L1 protein (D4AE25 entry or part of it limits assumed): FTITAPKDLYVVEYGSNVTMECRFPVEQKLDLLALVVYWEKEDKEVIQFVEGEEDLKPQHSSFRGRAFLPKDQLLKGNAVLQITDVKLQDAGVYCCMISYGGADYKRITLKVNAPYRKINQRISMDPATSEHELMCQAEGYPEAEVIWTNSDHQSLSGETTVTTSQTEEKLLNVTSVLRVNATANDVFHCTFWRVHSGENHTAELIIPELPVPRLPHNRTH
Chain of mouse PD-L1 protein (Q9EP73 19-239 limits assumed): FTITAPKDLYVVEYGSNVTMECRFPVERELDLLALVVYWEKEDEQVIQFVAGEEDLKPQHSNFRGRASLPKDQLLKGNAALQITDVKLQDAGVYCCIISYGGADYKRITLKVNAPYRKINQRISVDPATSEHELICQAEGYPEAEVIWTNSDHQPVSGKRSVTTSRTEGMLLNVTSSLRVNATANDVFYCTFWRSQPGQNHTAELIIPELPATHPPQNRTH
Chain of cynomolgus PD-L1 protein (G7PSE7 entry or part of it): as the sequence (Q9NZQ7 19-238 limits assumed) above, with A33T, A34S, S62N, R68Q, Q82R, F173L, T185A, T192I, H215L counted along it

B1: Hu89C10H8-12 (antibody, V domains shown)
VH: EVQLVESGGGLVKPGGSLRLSCAASGFTFSNYWMTWIRQAPGKGLEWVASITNTGSSTFYPDSVKGRFTISRDNAKSSLYLQMNSLRAEDTAVYYCTRDTTIAPFDYWGQGTMVTVSS
VL: DIQMTQSPSSLSASVGDRVTITCKASQNLNEYLNWYQQKPGKAPKRLIYKTNTLQAGIPSRFSGSGSGIDYTLTISSLQPEDFATYYCSQYNSGNTFGQGTKLEIK
notes: humanized
With B1, the EC50 in [1] turned out to be 0.131 nM; with human PD-L1-Fc protein [5], 0.00703 µg/mL. The Kd in assay [2] turned out to be 0.0968 nM; in [4] it was 0.0952 nM. Further, the figures for the koff in [2] and in [4] were 7.04e-05 s⁻¹ and 5.59e-05 s⁻¹, respectively. Besides, the figures for the kon in assay [2] and in assay [4] were 727000 M⁻¹ s⁻¹ and 587000 M⁻¹ s⁻¹, respectively. Moreover, the results for the IC50 with human PD-L1-Fc protein [3] and in the assay with human PD-L1-Fc protein [6] were 0.0891 µg/mL and 0.284 µg/mL, respectively.

B2: 89C10H8 chimeric mAb (antibody, V domains shown)
VH: EVQLVESGGGLVQPGRSLTLSCVASGFTFSNYWMTWIRQAPGKGLEWVASITNTGSSTFYPDSVKGRFTISRDNTRSTLFLQINSLRSEDTATYYCTRDTTIAPFDYWGQGVMVTVSS
VL: DIQMTQSPSFLSASVGDRVTITCKASQNLNEYLNWYQQKLGEAPKRLIYKTNTLQAGIPSRFSGSGSGIDYTLTISSLQPEDVATYFCSQYNSGNTFGAGTKLELK
notes: chimeric mAb of the hybridoma clone; also called 89C10H8-chimera
The molecule B2 returned a dissociation constant Kd in assay [7] of 0.0415 nM. The molecule further had a koff in assay [7] of 6.64e-05 s⁻¹. This molecule gave a kon in assay [7] of 1.6e+06 M⁻¹ s⁻¹. The binding result with mouse PD-L1 protein and with rat PD-L1 protein was “no binding (tested: dilutions starting from 10 µg/ml)” throughout. Moreover, the IC50 in the assay with human PD-L1-Fc protein [8] stood at 0.438 µg/mL; in the assay with human PD-L1-Fc protein [9] it was 0.133 µg/mL; with human PD-L1-Fc protein [11], 0.126 µg/mL; with human PD-L1-Fc protein [12], 0.13 µg/mL; with human PD-L1-Fc protein [17], 0.382 µg/mL; in the assay with human PD-L1-Fc protein [18], 0.432 µg/mL. The IC50 with human PD-L1-Fc protein [20] is 0.434 µg/mL; with human PD-L1-Fc protein [21], 0.12 µg/mL. Also, the EC50 with cynomolgus PD-L1 protein is 0.00677 µg/mL; in [10], 0.17 nM; in the assay with human PD-L1-Fc protein [13] it was 0.0157 µg/mL; with human PD-L1-Fc protein [14], 0.012 µg/mL; with human PD-L1-Fc protein [15], 0.00811 µg/mL; with human PD-L1-Fc protein [16] it was 0.0126 µg/mL. In assay [19], this molecule had a concentration for a half-maximal effect (EC50) of 0.118 nM.

Values taken from patent publication US20230287125A1 (LEPU BIOPHARMA, published 2023).
